Laboratory results reported in patent publication US20060088522A1, “Humanized anti-5T4 antibodies and anti-5T4/calicheamicin conjugates” (Wyeth, priority 2004, published 2006).
Changes are numbered by the printed parent chain.

Columns and labels:
PC14PE6 lung tumors = assay: orthotopic model of human lung cancer; assay type: in vivo, nude mice; details: intraperitoneal, 3 doses on days 6, 10 and 14
Procedure: To further assess the targeting ability of antibodies having an H8-calicheamicin conjugates, an orthotopic model for non-small cell and small cell cancer was used, essentially as described by Onn et al. (2003) Clin. Cancer Res. 9(15):5532-5539. In brief, human lung adenocarcinoma (PC14PE6) cells were injected into tail veins of nude mice, which then migrated to form tumors in lung. Tumors appeared as solid nodules in the lung parenchyma and caused hemorrhagic pleural effusions containing suspended tumor cells. Injection of control compounds and H8-calicheacmicin conjugates were administered by intraperitoneal injection to tumor-bearing mice beginning at 6 days after injection of tumor cells for a total of 3 doses given at 4-day intervals, i.e., on days 6, 10, and 14.

human 5T4 antigen [1] = biological target: T1, human 5T4 antigen (human, UniProt Q13641 32-355, limits assumed); assay: BIACORE, human 5T4 antigen immobilized on a CM5 chip, antibody 12.5 nM to 200 nM
T1 construct: Isolated antigen as used in BIACORE and ELISA; also called 5T4 oncofetal antigen
T1 sequence (looked up): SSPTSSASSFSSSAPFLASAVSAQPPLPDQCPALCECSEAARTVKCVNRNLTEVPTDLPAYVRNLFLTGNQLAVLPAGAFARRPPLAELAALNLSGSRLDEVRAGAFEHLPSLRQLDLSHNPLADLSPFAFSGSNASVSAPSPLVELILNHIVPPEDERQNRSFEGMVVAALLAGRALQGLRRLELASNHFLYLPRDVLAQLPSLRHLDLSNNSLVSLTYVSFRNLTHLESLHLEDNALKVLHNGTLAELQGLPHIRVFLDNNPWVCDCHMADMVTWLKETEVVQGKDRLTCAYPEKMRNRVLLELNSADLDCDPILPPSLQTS
Procedure: BIACORE® technology utilizes changes in the refractive index at the surface layer upon binding of the antibody to the 5T4 antigen immobilized on the layer. Binding is detected by surface plasmon resonance (SPR) of laser light refracting from the surface. Analysis of the signal kinetics on rate and off rate allows the discrimination between non-specific and specific interaction. The concentration of antibody used was in the range of 12.5 nM to 200 nM.

human 5T4 antigen [2] = biological target: T1, human 5T4 antigen; assay: BIACORE (plasmon resonance)
[3] = biological target: T2, human 5T4 antigen on cells (human, UniProt Q13641 32-420); assay: cell-based or functional assay
T2 construct: whole, on cells; also called 5T4 on MDAMB435/5T4 cells; 5T4 on CT26/5T4 cells
T2 sequence (looked up): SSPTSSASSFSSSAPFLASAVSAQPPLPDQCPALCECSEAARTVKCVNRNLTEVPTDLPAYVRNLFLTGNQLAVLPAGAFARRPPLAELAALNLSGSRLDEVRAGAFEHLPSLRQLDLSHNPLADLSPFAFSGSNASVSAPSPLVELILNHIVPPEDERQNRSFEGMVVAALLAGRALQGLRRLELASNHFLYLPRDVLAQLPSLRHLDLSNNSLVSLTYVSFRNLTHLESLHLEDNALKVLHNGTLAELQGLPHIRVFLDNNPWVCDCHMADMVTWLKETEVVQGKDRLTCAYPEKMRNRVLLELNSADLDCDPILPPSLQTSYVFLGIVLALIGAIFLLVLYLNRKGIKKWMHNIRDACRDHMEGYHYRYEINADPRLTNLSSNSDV

human 5T4 antigen [4] = biological target: T1, human 5T4 antigen; assay: competition ELISA on plate-coated human 5T4 antigen; competitor biotinylated chimeric H8 at its ED50
Procedure: ELISA plates were coated with human 5T4 antigen. To each well was added 100 μl of 1 μg/ml 5T4 antigen in PBS-CMF pH 7.2. The plates were incubated overnight at 4° C. After coating with antigen, plates were washed in a blocking solution of 0.02% casein in PBS-CMF, pH 7.2 for 2-4 hours at room temperature. […] Plates were washed 4 times with 200 μl of 0.03% TWEEN®-20 in PBS. The signal was developed for 10-15 minutes at room temperature following addition of 100 ∥l BIOFX® TMB (Biofx Laboratories, Inc. of Randallstown, Md.) per well. The reaction was stopped by addition of 100 μl per well of 0.18 N H₂SO₄. All incubation and wash steps were performed with gentle agitation. […] The ED50 of biotinylated antibody binding to antigen was determined by plotting OD₄₅₀ (duplicate data points averaged) as a function of biotinylated antibody concentration. […] The biotin label was amplified using streptavidin-HRP diluted 1:10,000 in assay buffer, followed by signal development and quantification as above.

human 5T4 antigen [5] = biological target: T1, human 5T4 antigen; assay: BIACORE
[6] = biological target: T2, human 5T4 antigen on cells; assay: FACS on MDAMB435/5T4 cells
[7] = biological target: T2, human 5T4 antigen on cells; assay: flow cytometry on MDAMB435/5T4 cells
[8] = biological target: T2, human 5T4 antigen on cells; assay: flow cytometry on N87, PC14PE6 and NCl-H157 cells (told of each)

Molecule: CMA: anti-CD33 antibody (p67.6) conjugated to calicheamicin, AcBut linker; control conjugate
- pleural effusions (PC14PE6 lung tumors): did not reduce the pleural effusions
- survival of tumor-bearing animals (PC14PE6 lung tumors): slightly increased the average survival

B1: Humanized H8 version 2 (hVH2/hVL2) (antibody, human IgG4 S228P, kappa, V domains shown)
VH: QVQLVQSGAEVKKPGASVKVSCKASGYSFTGYYMHWVRQAPGQGLEWMGRINPNNGVTLYNQKFKDRVTMTRDTSISTAYMELSRLRSDDTAVYYCARSTMITNYVMDYWGQGTLVTVSS
VL: DIVMTQSPDSLAVSLGERATINCKASQSVSNDVAWYQQKPGQPPKLLIYYTSSRYAGVPDRFSGSGSGTDFTLTISSLQAEDVAVYYCQQDYNSPPTFGGGTKLEIKR
- Kd (human 5T4 antigen [1]): 0.12 nM

B2: Humanized H8 version 2/CM (antibody, human IgG4 S228P, kappa, V domains shown)
VH: B1 VH
VL: B1 VL
modifications: calicheamicin (CM) conjugated; linker and residues not stated
notes: also called humanized H8 version 2-calicheamicin conjugates
- Kd (human 5T4 antigen [2]): 0.17 nM
- koff (human 5T4 antigen [2]): 2e-05 s⁻¹
- kon (human 5T4 antigen [2]): 120000 M⁻¹ s⁻¹

B3: Humanized H8 version 2/AcBut/CalichDMH (antibody, human IgG4 S228P, kappa, V domains shown)
VH: B1 VH
VL: B1 VL
modifications: CalichDMH conjugated through the AcBut linker; residues not stated
notes: Conjugate sample contained 61 ug CalichDMH per mg protein, 1% free antibody, 1.4% aggregate; also called humanized H8 calicheamicin conjugate
- Kd (human 5T4 antigen [2]): 0.26 nM
- koff (human 5T4 antigen [2]): 3.4e-05 s⁻¹
- kon (human 5T4 antigen [2]): 130000 M⁻¹ s⁻¹

B4: Humanized H8 version 3 (hVH3/hVL2) (antibody, human IgG4 S228P, kappa, V domains shown)
VH: B1 VH with M70I, I76T, R85S, D89E
VL: B1 VL
- Kd (human 5T4 antigen [1]): 0.12 nM

B5: Humanized H8 version 1 (hVH1/hVL1) (antibody, human IgG4 S228P, kappa, V domains shown)
VH: B1 VH with R38K, A40S, M48I
VL: B1 VL with P43S, Y49S, Y87F
- Kd (human 5T4 antigen [1]): 0.84 nM

B6: H8-AcBut-CalichDMH (antibody, V domains shown)
VH: EVQLQQSGPDLVKPGASVKISCKASGYSFTGYYMHWVKQSHGKSLEWIGRINPNNGVTLYNQKFKDKAILTVDKSSTTAYMELRSLTSEDSAVYYCARSTMITNYVMDYWGQVTSVTVSS
VL: SIVMTQTPTFLLVSAGDRVTITCKASQSVSNDVAWYQQKPGQSPTLLISYTSSRYAGVPDRFIGSGYGTDFTFTISTLQAEDLAVYFCQQDYNSPPTFGGGTKLEIK
- ED50 (ng/ml calicheamicin), MTS vital dye, MDAMB435/5T4 cells [3]: 0.04 ng/mL

B7: Murine H8/CM (antibody, V domains shown)
VH: B6 VH
VL: B6 VL
notes: also called murine H8-calicheamicin conjugates
- Kd (human 5T4 antigen [2]): 0.58 nM
- koff (human 5T4 antigen [2]): 5.9e-05 s⁻¹
- kon (human 5T4 antigen [2]): 100000 M⁻¹ s⁻¹

B8: Chimeric H8 (mVH/mVL) (antibody, V domains shown)
VH: B6 VH
VL: B6 VL
notes: also called chimeric H8 antibody; chimeric versions of H8
- Kd (human 5T4 antigen [1]): 0.3 nM
- koff (human 5T4 antigen [1]): 4.2e-05 s⁻¹
- kon (human 5T4 antigen [1]): 140000 M⁻¹ s⁻¹
- IC50 (human 5T4 antigen [4]): 1 nM

B9: H8 antibody/PEG-SBA (PEG5K) (antibody, V domains shown)
VH: B6 VH
VL: B6 VL
notes: also called H8PEG5K; H8PEG
- fraction of binding to 5T4 lost following antibody modification (human 5T4 antigen [5]): 79%

B10: Semi-Humanized H8 (mVH/hVL1) (antibody, human IgG4 S228P, kappa, V domains shown)
VH: B6 VH
VL: B1 VL with P43S, Y49S, Y87F
notes: murine H8 VH + mutated human IgG4; also called semi-humanized H8 antibody; semi-human anti-5T4 antibody
- binding result [6]: binds

B11: murine H8 anti-5T4 antibody (antibody, V domains shown)
VH: B6 VH
VL: B6 VL
notes: also called mAb5T4; H8 antibody
- fold signal over control IgG [7]: > 100 fold
- fold signal over control IgG [8]: ~10 fold
- Kd (human 5T4 antigen [1]): 0.58 nM
- koff (human 5T4 antigen [1]): 5.9e-05 s⁻¹
- kon (human 5T4 antigen [1]): 100000 M⁻¹ s⁻¹

B12: H8-AcPac-CalichDMH (antibody, V domains shown)
VH: B6 VH
VL: B6 VL
- ED50 (ng/ml calicheamicin), MTS vital dye, MDAMB435/5T4 cells [3]: 0.02 ng/mL

B13: H8 antibody/PEG-SPA (PEG2K) (antibody, V domains shown)
VH: B6 VH
VL: B6 VL
notes: also called H8PEG2K; H8PEG
- fraction of binding to 5T4 lost following antibody modification (human 5T4 antigen [5]): 69%

B14: H8 antibody/PEG-bis-maleimide (PEGmal2) (antibody, V domains shown)
VH: B6 VH
VL: B6 VL
notes: also called H8PEGmal2; H8PEG(mal2)
- fraction of binding to 5T4 lost following antibody modification (human 5T4 antigen [5]): 43%

B15: H8-Amide-CalichDMH (antibody, V domains shown)
VH: B6 VH
VL: B6 VL
- ED50 (ng/ml calicheamicin), MTS vital dye, MDAMB435/5T4 cells [3]: 0.18 ng/mL
- fold cytotoxicity, 5T4-expressing against 5T4-negative cells [3]: 200 fold

B16: H8PEGmal2-AcBut-CalichDMH (antibody, V domains shown)
VH: B6 VH
VL: B6 VL
- ED50 (ng/ml calicheamicin), MTS vital dye, MDAMB435/5T4 cells [3]: 0.9 ng/mL
